{"source": "patent EP0714402B9", "about": "“POLYMER MODIFICATION” (PolyMASC Pharmaceuticals plc, priority 1993, dated 1995)", "key": {"[1]": {"test": "partition of amphotericin in dextran/PEG biphasic system", "assay_type": "physicochemical", "details": "5% dextran T-500, 5% PEG-6000, pH 6.8, absorbance at 330 nm"}, "[2]": {"tested_on": "granulocyte-macrophage colony", "test": "granulocyte-macrophage colony assay (CFUgm) of GM-CSF growth stimulating activity", "assay_type": "cell-based", "details": "versus comparable amounts of unmodified GM-CSF, 0.1 to 8 ng/ml, Fig.3a", "description": "(§1) A better approach is to perform a correlation analysis, plotting the response obtained with equivalent amounts of the modified and unmodified materials on an XY plot. Identical activity gives datum points randomly distributed about the line representing equal activity (the dashed lines). […] In contrast, the presence of inhibitory material, with or without loss of intrinsic activity, produces a departure, usually without convergence to the upper extremity.\n(§2) Datum points are means of colony counts in triplicate dishes for three independent experiments (Fig. 3a) or of two independent thymidine uptake experiments (Fig 3b)."}, "[3]": {"test": "3H-thymidine uptake assay of GM-CSF growth stimulating activity", "assay_type": "cell-based", "details": "versus comparable amounts of unmodified GM-CSF, 0.0006 to 1.0ng/ml, Fig.3b", "description": "as §1, §2"}, "[4]": {"test": "degradation of 125I-GM-CSF on storage at 4°C, FPLC profiles", "assay_type": "physicochemical", "details": "for relative amount of 125I, Peak 1: high molecular weight; for relative amount of 125I, Peak 2: intermediate fragments; for relative amount of 125I, Peak 3: low molecular weight", "description": "This process is slowed by PEG modification. […] When supplied, ^125I-GM-CSF has little or no low molecular weight labelled species. […] There has been generation of intermediate and low molecular weight fragments in both samples. The former are commensurate in size with proteolytic cleavage products and the latter either with free iodine or very small fragments (i.e. < circa 1kDa). Pegylation reduces the loss of high molecular weight species."}, "[5]": {"test": "blood clearance after subcutaneous injection with [125I]GM-CSF tracer", "assay_type": "in vivo, BALB/c, male, 6-8 week-old mice", "details": "late clearing component; for fold increase of t1/2 over the control figure: figures in parentheses; for t1/2: subcutaneous, […] body weight, mice", "procedure": "BALB/c, male, 6-8 week-old mice, weighing approximately 20g, were pooled into groups of three per condition, with adlib access to food and water. The reaction products were evaluated by FPLC and the proportions of individual species were estimated by fitting summated Gaussian curves to the FPLC profiles and estimating the area under the curve corresponding to each individual peak and expressing this as a % of the total area for the whole FPLC profile (Table 4b). The inventors have previously established that the individual peaks seen at low TMPEG concentrations (peaks 0, 1, 2 and 3) correspond to GM-CSF, PEG1-GM-CSF, PEG2-GM-CSF, PEG3-GM-CSF, respectively. At high TMPEG concentrations the peaks are broader and less well resolved thus fitting of individual Gaussian curves over all regions of the FPLC profile may not be possible. Thus peak 3 and the peaks for more highly substituted GM-CSF (potentially PEG4-7-GM-CSF) have been pooled. The peak eluting with the void volume peak is well resolved from the PEG4-7-GM-CSF and presumably represents aggregates, the area of this peak was used to estimate the proportion of aggregated material (Table 4b).\nThe different PEGylated samples and unmodified GM-CSF (Hoechst), all containing <4% [^125I]GM-CSF (Amersham, 1222 Ci/mmol) to serve as a tracer, were adminstrated at a dose of 0.0524µg in 100µl (3.45 x 10^-12 mole; equivalent to 2.5µg/kg body weight) by subcutaneous injection. The amount of TMPEG concomitantly administered is also indicated in Table 4a (MPEG has been shown not to influence t1/2, but does influence egress from the subcutaneous site). Up to eight 25µl tail vein blood samples were collected from each mouse using capillary tubes at various time points ranging between 10 minutes and 80 hours, to give a minimum of three samples per time point. Samples from the capillary tubes were washed immediately into 1ml of PBS containing 50 I.U. of heparin. Radioactivity was determined using a gamma counter (LKB 1270 Rackgamma) results being shown in Fig. 6a (open circles for untreated material, other symbols as indicated on the figure). Clearances for the materials of reactions A and B were clearly biphasic, presumably reflecting the large proportion of unmodified material remaining in these preparations (Table 4b). Half-lives were calculated using linear regression (log concentration versus time) for the slower clearing component if biphasic elimination was present (solid lines Figure 6a; dotted lines give the 95% confidence intervals)."}, "[6]": {"test": "tissue distribution, organ:blood concentration ratios", "assay_type": "in vivo, mice", "details": "organ:blood concentration ratios versus GM-CSF, Fig.6b", "procedure": "In order to establish the contributions to extended t1/2 we examined the tissue distribution of material prepared in an identical manner to reaction C, using an identical dose. At each of the times indicated, one aminal was sacrificed and organs/tissue including kidney, spleen, liver, lung, heart and femur were recovered and radioactivity was measured as above. […] The dotted and dashed lines indicate the blood levels of GM-CSF and PEG-GM-CSF respectively. The filled circles and open circles are the organ concentrations of PEG-GM-CSF and GM-CSF respectively. […] This is somewhat surprising since circa 24% of the reaction C mixture represents PEG1-GM-CSF (i.e. material below the renal threshold). […] Thus the degree of substitution desirable for individual targets will have to be assessed on a case-by-case basis. Table 4(A)"}}}
{"molecule": "C[C@@H]1[C@H](O)[C@@H](C)/C=C/C=C/C=C/C=C/C=C/C=C/C=C/[C@H](O[C@@H]2O[C@H](C)[C@@H](O)[C@H](N)[C@@H]2O)C[C@@H]2O[C@](O)(C[C@@H](O)C[C@@H](O)[C@H](O)CC[C@@H](O)C[C@@H](O)CC(=O)O[C@H]1C)C[C@H](O)[C@H]2C(=O)O", "note": "[control, amphotericin]", "values": [{"measurement": "% material in the top (PEG-rich) phase", "setting": "[1]", "value": "4.9 ± 0.2", "unit": "%"}]}
{"molecule": "Comparative Example 1: gm-CSF PEGylated with TMPEG made by a previously described method (WO90/04606, Example 1) [reference compound]", "values": [{"measurement": "growth stimulating activity as assessed by granulocyte-macrophage colony assay", "setting": "[2]", "value": "additional inhibitory activity"}, {"measurement": "growth stimulating activity as assessed by thymidine uptake", "setting": "[3]", "value": "loss of activity without significant inhibitory material"}]}
{"molecule": "PEG-CM-CSF: 125I-GM-CSF exposed to TMPEG at a molar ratio of 305:1", "values": [{"measurement": "relative amount of 125I, Peak 1", "setting": "[4]; After 1 Month Storage at 4°C", "value": 45.8}, {"measurement": "relative amount of 125I, Peak 2", "setting": "[4]; After 1 Month Storage at 4°C", "value": 8.9}, {"measurement": "relative amount of 125I, Peak 3", "setting": "[4]; After 1 Month Storage at 4°C", "value": 36.3}, {"measurement": "relative amount of 125I, Peak 1", "setting": "[4]; Before Storage", "value": 81.1}, {"measurement": "relative amount of 125I, Peak 2", "setting": "[4]; Before Storage", "value": 0}, {"measurement": "relative amount of 125I, Peak 3", "setting": "[4]; Before Storage", "value": 12.4}]}
{"molecule": "Reaction A: PEG-modified GM-CSF preparation, GM-CSF 0.524 µg/ml reacted with TMPEG 6.46 mg/ml", "values": [{"measurement": "fold increase of t1/2 over the control figure", "setting": "[5]", "value": 7.2, "unit": "fold"}, {"measurement": "t1/2", "setting": "[5]", "value": 11.7, "unit": "h"}]}
{"molecule": "Reaction B: PEG-modified GM-CSF preparation, GM-CSF 0.524 µg/ml reacted with TMPEG 19.75 mg/ml", "values": [{"measurement": "fold increase of t1/2 over the control figure", "setting": "[5]", "value": 11.1, "unit": "fold"}, {"measurement": "t1/2", "setting": "[5]", "value": 18.1, "unit": "h"}]}
{"molecule": "Reaction C: PEG-modified GM-CSF preparation, GM-CSF 0.524 µg/ml reacted with TMPEG 197.5 mg/ml", "values": [{"measurement": "fold increase of t1/2 over the control figure", "setting": "[5]", "value": 10.3, "unit": "fold"}, {"measurement": "t1/2", "setting": "[5]", "value": 16.8, "unit": "h"}, {"measurement": "renal accumulation", "setting": "[6]", "value": "substantially reduced"}]}
{"molecule": "Reaction D: PEG-modified GM-CSF preparation, GM-CSF 0.524 µg/ml reacted with TMPEG 459.7 mg/ml; contains >50% of aggregates", "values": [{"measurement": "fold increase of t1/2 over the control figure", "setting": "[5]", "value": 15.3, "unit": "fold"}, {"measurement": "t1/2", "setting": "[5]", "value": 25.1, "unit": "h"}]}
{"molecule": "gm-CSF PEGylated using the process of Example 1: gm-CSF coupled with TMPEG made by the process of the invention", "values": [{"measurement": "growth stimulating activity as assessed by granulocyte-macrophage colony assay", "setting": "[2]", "value": "no significant loss"}, {"measurement": "growth stimulating activity as assessed by thymidine uptake", "setting": "[3]", "value": "no significant loss"}]}
